Test results from publication PMC4654935.

Key:
[1] = target: Rab8A S111A (recombinant) (human) (UniProt P61006)
[2] = target: Rab8A wild-type (recombinant) (human) (UniProt P61006)
[3] = target: Rab8A S111E (recombinant) (human) (UniProt P61006)

B1: Rabin8(153-237) (domain or fragment)
chain: VREKGYERLKEELAKAQRELKLKDEECERLSKVRDQLGQELEELTASLFEEAHKMVREANIKQATAEKQLKEAQGKIDVLQAEVA
B1 was tested, and the k cat/K M of Rabin8-catalysed mantGDP release from Rab8A (1 uM Rab, 100 uM GDP, 0.5 uM Rabin8, 25°C) [1] was 87000 M⁻¹ s⁻¹, the k cat/K M of Rabin8-catalysed mantGDP release from Rab8A (1 uM Rab, 100 uM GDP, 0.5 uM Rabin8, 25°C) [2] was 100000 M⁻¹ s⁻¹ and the k cat/K M of Rabin8-catalysed mantGDP release from Rab8A (1 uM Rab, 100 uM GDP, 0.5 uM Rabin8, 25°C) [3] was 7600 M⁻¹ s⁻¹.
